# Experimental data as given in PMC8584533, “Hetero/Homo-Complexes of Sucrose Transporters May Be a Subtle Mode to Regulate Sucrose Transportation in Grape Berries” (International Journal of Molecular Sciences, 2021).
# T1: SUC11 (Chardonnay) (Vitis vinifera, UniProt Q9SQK6)
# T1 construct: gene VvSUC11; full length, 500 residues, one site different from Thompson Seedless; expressed in yeast SUSY7/ura3
# T1 sequence (Q9SQK6 1-501): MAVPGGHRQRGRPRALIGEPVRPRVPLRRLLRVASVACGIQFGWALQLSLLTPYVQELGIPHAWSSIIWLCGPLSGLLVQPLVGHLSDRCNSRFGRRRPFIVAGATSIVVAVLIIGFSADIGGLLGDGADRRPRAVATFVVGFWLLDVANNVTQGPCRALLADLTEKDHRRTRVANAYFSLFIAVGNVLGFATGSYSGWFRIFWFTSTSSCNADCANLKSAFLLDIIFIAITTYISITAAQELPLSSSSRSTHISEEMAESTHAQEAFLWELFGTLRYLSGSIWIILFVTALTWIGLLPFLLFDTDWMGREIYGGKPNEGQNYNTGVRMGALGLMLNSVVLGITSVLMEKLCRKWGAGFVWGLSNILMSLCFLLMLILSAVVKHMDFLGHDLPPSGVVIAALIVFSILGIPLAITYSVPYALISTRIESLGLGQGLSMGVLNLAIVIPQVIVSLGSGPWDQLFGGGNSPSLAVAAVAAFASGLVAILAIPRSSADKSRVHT
# Key:
# SUC11 (Chardonnay) = target: T1, SUC11 (Chardonnay); assay: sucrose transport in yeast SUSY7/ura3; assay type: cell-based; settings: 0.1, 0.2 and 2 mM sucrose
# [1] = substrate: OC[C@H]1O[C@@](CO)(O[C@H]2O[C@H](CO)[C@@H](O)[C@H](O)[C@H]2O)[C@@H](O)[C@@H]1O; assay: cells, lysate or membranes; assay type: cell-based, Vitis vinifera; settings: pH 5.0, 30 °C, 10 mM glucose, 20 min, expressed alone, labelled compound
Molecule,sucrose transport ability (SUC11 (Chardonnay)),Km [1] [µM]
OC[C@H]1O[C@@](CO)(O[C@H]2O[C@H](CO)[C@@H](O)[C@H](O)[C@H]2O)[C@@H](O)[C@@H]1O [sucrose],did not affect the structure (Figure S5a) or sucrose transport ability,
"VvSUC11 (Vitis vinifera) (protein, full length, 500 residues (printed), leaf cDNA in pDR196, expressed in yeast SUSY7/ura3) MAVPGGHRQRGRPRALIGEPVRPRVPLRRLLRVASVACGIQFGWALQLSLLTPYVQELGIPHAWSSIIWLCGPLSGLLVQPLVGHLSDRCNSRFGRRRPFIVAGATSIVVAVLIIGFSADIGGLLGDGADRRPRAVATFVVGFWLLDVANNVTQGPCRALLADLTEKDHRRTRVANAYFSLFIAVGNVLGFATGSYSGWFRIFWFTSTSSCNADCANLKSAFLLDIIFIAITTYISITAAQELPLSSSSRSTHISEEMAESTHAQEAFLWELFGTLRYLSGSIWIILFVTALTWIGLLPFLLFDTDWMGREIYGGKPNEGQNYNTGVRMGALGLMLNSVVLGITSVLMEKLCRKWGAGFVWGLSNILMSLCFLLMLILSAVVKHMDFLGHDLPPSGVVIAALIVFSILGIPLAITYSVPYALISTRIESLGLGQGLSMGVLNLAIVIPQVIVSLGSGPWDQLFGGGNSPSLAVAAVAAFASGLVAILAIPRSSADKSRVHT",,354
"VvSUC12 (Vitis vinifera) (protein, full length, 611 residues (printed), leaf cDNA in pDR196, expressed in yeast SUSY7/ura3) MPETMDAPSIRVPYKNLKQAEVELVAADEPRHGADLNSRVPNGTSDPSSSPSSIPHPPKHGGLRTLILSCMIAAGVQFGWALQLSLLTPYIQTLGIEHAFSSFIWLCGPITGLVVQPCVGIWSDKCSSKYGRRRPFILAGSLMISVAVTIIGFSADIGYLLGDTNMDCRKFKGTRTWAAIIFVLGFWMLDLANNTVQGPARALLADLSGPDQRNSANAIFCSWMAVGNILGFSAGASGHWHRWFPFLLNKACCEACGNLKAAFLIAVVFLTLCTLVTLYFAEEVPLMAYQPHHLSDSAPLLDNPQQIGFDNSKSKLDMSAVDNATGNNPESSYEINKNAKHLTPIVQEQNESFSDGPGAVLVNLLTSLRHLPPAMHSVLLVMALSWLSWFPFFLFDTDWMGREVYHGDPKGDESAVKAYDAGVREGAFGLLLNSVDLGISSFLIEPMCQRMGARLVWAMSNFIVFACMAGTAIISLVSVNEYITEGIQHAIGENRAIKIASLVVFALLGFPLSITYSVPFSITAELTADTGGGQGLAIGVLNLAIVIPQMIVSLGAGPWDALFGGGNIPAFVLAALFALAAGVIATLKLPNLSSSSYKSSGFHFGNFPASMR",,943
"VvSUC27 (Vitis vinifera) (protein, full length, 504 residues (printed), leaf cDNA in pDR196, expressed in yeast SUSY7/ura3) MELAKPSSVFAIQDHQSSSPPTPIWKTVVVASIAAGIQFGWALQLSLLTPYVQLLGIPHKWAAFIWLCGPISGMIVQPVVGYHSDRCTSRFGRRRPFIAAGAVLVAIAVFLIGYAADIGRVSGDPLHNTIKTRAVAVFVVGFWILDVANNMLQGPCRALLADLSGTSARRTRTANALYSFFMAVGNVLGYAAGSFSKLHKMFPFARTQACDLYCANLKSCFFLSIALLLILTIIAFATVHETPLNRADIAVVEAGQPFYSQMMNAFRQLRRPMWVLLLVTCLNWIGWFPFLLFDTDWMGREVYGGTVGEGPRGRLYDLGVRAGSLGLMLNSVVLGLMSLGVEFFGRGVGGVKRLWGGVNFLLALCLALTVLVSKLAASWRHSLGGELHPPPIGIKAGALSLFAVMGVPLAITYSIPFALASIFCHSSGAGQGLSLGVLNLAIVVPQMMVSVASGPWDARFGGGNLPAFVVGAFAAALNGVLALTMLPAPPPDVPNTKDERTQPSS",,3064
